Measured values published in patent publication US20250042994A1 (HAINAN SIMCERE ZAIMING PHARMACEUTICAL, published 2025).

T1: human CD19 on Raji cells (human, UniProt P15391 20-556)
T1 construct: whole, on cells
T1 sequence (looked up): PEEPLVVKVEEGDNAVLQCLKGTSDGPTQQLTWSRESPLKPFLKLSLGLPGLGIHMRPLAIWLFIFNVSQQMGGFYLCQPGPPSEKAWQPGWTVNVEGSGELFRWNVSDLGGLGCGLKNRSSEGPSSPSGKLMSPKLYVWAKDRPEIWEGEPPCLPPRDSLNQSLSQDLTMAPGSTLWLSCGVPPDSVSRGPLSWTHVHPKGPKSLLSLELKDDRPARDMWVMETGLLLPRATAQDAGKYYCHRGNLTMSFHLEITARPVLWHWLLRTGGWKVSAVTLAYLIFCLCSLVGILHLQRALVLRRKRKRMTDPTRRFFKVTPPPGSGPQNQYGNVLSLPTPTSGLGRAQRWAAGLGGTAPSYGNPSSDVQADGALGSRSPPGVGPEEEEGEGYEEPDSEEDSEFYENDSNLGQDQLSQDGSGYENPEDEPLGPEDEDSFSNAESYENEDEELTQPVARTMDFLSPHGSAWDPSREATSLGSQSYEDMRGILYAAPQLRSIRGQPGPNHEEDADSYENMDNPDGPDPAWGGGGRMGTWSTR

T2: human CD19 on CHO-K1-human CD19 cells (human, UniProt P15391 20-556)
T2 construct: whole, on cells; also called CHO-K1-human CD19-2C8
T2 sequence (looked up): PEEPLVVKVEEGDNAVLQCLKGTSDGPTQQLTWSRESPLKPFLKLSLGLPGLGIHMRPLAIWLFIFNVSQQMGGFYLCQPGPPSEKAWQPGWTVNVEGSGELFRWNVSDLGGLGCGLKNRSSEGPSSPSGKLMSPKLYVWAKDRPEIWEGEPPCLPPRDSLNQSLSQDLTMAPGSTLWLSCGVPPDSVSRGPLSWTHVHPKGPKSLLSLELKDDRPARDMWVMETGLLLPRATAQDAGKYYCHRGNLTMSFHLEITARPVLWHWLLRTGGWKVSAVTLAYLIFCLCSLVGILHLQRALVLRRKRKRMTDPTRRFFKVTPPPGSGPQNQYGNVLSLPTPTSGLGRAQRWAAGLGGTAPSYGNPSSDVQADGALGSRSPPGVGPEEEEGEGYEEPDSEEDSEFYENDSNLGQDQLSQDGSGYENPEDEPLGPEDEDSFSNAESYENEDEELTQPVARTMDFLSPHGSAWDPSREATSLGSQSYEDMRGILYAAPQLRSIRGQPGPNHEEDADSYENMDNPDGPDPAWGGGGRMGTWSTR

T3: Human CD19-his protein (human, UniProt P15391 20-291)
T3 construct: bought protein; also called recombinant human CD19-His; CD19 full-length protein; not shown: His tag
T3 sequence (looked up): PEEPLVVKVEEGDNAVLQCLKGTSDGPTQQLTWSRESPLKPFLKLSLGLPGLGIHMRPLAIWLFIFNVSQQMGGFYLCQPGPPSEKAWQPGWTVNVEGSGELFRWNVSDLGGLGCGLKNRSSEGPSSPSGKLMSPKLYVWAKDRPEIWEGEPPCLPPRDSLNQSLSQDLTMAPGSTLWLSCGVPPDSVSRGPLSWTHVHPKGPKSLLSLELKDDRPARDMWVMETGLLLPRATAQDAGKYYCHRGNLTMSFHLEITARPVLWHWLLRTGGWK

T4: human CD19 exon1-3-His tag protein (human, UniProt P15391 20-186, limits assumed)
T4 construct: membrane-distal part of the extracellular region, made in HEK293E cells; not shown: His tag
T4 sequence (looked up): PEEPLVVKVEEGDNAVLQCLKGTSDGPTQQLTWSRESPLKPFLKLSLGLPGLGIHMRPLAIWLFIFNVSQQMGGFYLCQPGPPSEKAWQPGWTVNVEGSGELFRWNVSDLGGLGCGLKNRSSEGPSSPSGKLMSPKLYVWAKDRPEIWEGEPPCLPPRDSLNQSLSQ


How the values were obtained:
human CD19 on Raji cells = target: T1, human CD19 on Raji cells; assay: FACS on Raji cells
Procedure: (§1) After the digestion was terminated, the cells were washed 2 times with a PBS buffer; and for suspension cell Raji, the supernatant of the medium was discarded by directly centrifugation, and the cell pellet was washed 2 times with PBS. After counting the cells in the previous step, the cell pellet was resuspended with [PBS+2% (w/w) BSA] blocking solution to 2×10⁶ cells/ml, and added to a 96-well FACS reaction plate at 50 μl/well, and then the sample to be tested was added at 50 μl/well, and incubated on ice for 2 h. The obtained mixture was centrifuged and washed 3 times with a PBS buffer. […] The obtained mixture was centrifuged and washed 5 times with a PBS buffer, and FACS (FACS Canto™, purchased from BD Company) was used for detection and result analysis. Data analysis was performed by software (FlowJo) to obtain the mean fluorescence intensity (MFI) of the cells. And then software (GraphPad Prism8) was used for analysis, data fitting, and EC50 value calculation. […] The same method was used to detect the binding of the chimeric antibodies to endogenous CD19-negative cells, MoLT4 cells (purchased from ATCC, CRL-1582), and CHO-K1 cells.

[1] = target: T2, human CD19 on CHO-K1-human CD19 cells; assay: FACS on CHO-K1-human CD19 cells
Procedure: as §1

Human CD19-his protein [2] = target: T3, Human CD19-his protein; assay: SPR Biacore, method of example 7.1, human CD19-His
Procedure: A sample buffer and a running buffer were HBS-EP+ (10 mM HEPES, 150 mM NaCl, 3 mM EDTA and 0.05% surfactant P20) (GE Healthcare; BR-1006-69). The flow-through cell was set to 25° C. The sample block was set to 16° C. Both were pretreated with the running buffer. In each cycle, an antibody to be detected was first captured with a Protein A chip, and then a single concentration of CD19 antigen protein was injected. The binding and dissociation processes of the antibody and the antigen protein were recorded, and finally Glycine pH 1.5 (GE Healthcare; BR-1003-54) was used to complete chip regeneration. The binding was measured by injecting different concentrations of recombinant human CD19-His proteins in a solution for 240 s with a flow rate of 30 μl/min. The concentration started from 200 nM (see the detailed results for the actual concentration in the test) and was diluted at 1:1, making a total of 5 concentrations. The dissociation phase was monitored for up to 600 s and was triggered by switching from sample solution to running buffer. The surface was regenerated by washing with a 10 mM glycine solution (pH 1.5) for 30 s at a flow rate of 30 μl/min. Bulk refractive index difference was corrected by subtracting the response obtained from the goat anti-human Fc surface. Blank injection was also subtracted (=double reference). For calculation of apparent KD and other kinetic parameters, Langmuir 1:1 model was used.
SPR (biacore) detection and data analysis were performed according to the method in example 7.1.

Human CD19-his protein [3] = target: T3, Human CD19-his protein; assay: ELISA on coated human CD19-His
[4] = target: T4, human CD19 exon1-3-His tag protein; assay: ELISA, coated human CD19 exon 1-3-His
Human CD19-his protein [5] = target: T3, Human CD19-his protein; assay: ELISA, coated human CD19-His
Procedure: Human CD19-his protein (purchased from ACROBiosystems, catalog number: CD9-H52H2) was diluted with PBS to a final concentration of 4 μg/mL, and then added to a 96-well ELISA plate at 100 μl/well. The plate was sealed with a plastic film and incubated overnight at 4° C., the plate was washed 2 times with PBS the next day, and then a blocking solution [PBS+2% (w/w) BSA] was added for blocking at room temperature for 2 h. The blocking solution was poured off, and 100 nM gradiently diluted CD19 chimeric antibody or control antibody was added at 50 μl/well. After incubation at 37° C. for 2 h, the plate was washed 3 times with PBS. […] TMB substrate was added at 50 μl/well, and incubated at room temperature for 10 min, and then a stop solution (1.0 N HCl) was added at 50 μl/well. The OD450 nm values were read by an ELISA microplate reader (Multimode Plate Reader, EnSight, purchased from Perkin Elmer).

Binder | EC50 (human CD19 on Raji cells) | Maximum mean fluorescence intensity (human CD19 on Raji cells) | EC50 [1] | Maximum mean fluorescence intensity [1] | Kd (Human CD19-his protein [2]) | koff (Human CD19-his protein [2]) | kon (Human CD19-his protein [2]) | EC50 (read off the curve) (Human CD19-his protein [3]) | OD450 at 0.0001 nM [4] | OD450 at 0.001 nM [4] | OD450 at 0.01 nM [4] | OD450 at 0.10 nM [4] | OD450 at 1.00 nM [4] | OD450 at 10 nM [4] | OD450 at 100 nM [4] | OD450 at 0.0001 nM (Human CD19-his protein [5]) | OD450 at 0.001 nM (Human CD19-his protein [5]) | OD450 at 0.01 nM (Human CD19-his protein [5]) | OD450 at 0.10 nM (Human CD19-his protein [5]) | OD450 at 1.00 nM (Human CD19-his protein [5]) | further results
F3.121.4-L1H4 (antibody, mouse IgG1, kappa, humanized antibody of F3.121.4, VL1+VH4, murine IgG1 constant regions) heavy: EVQLQQSGAEVKKPGASVKVSCKASGYTFTNYWMHWVRQRPGQGLEWMGEIDPSDNYANYNQEFQGRVTITVDKSASTAYMELSSLRSEDTAVYYCARHDGYFGALDYWGQGTTVTVSSAKTTPPSVYPLAPGSAAQTNSMVTLGCLVKGYFPEPVTVTWNSGSLSSGVHTFPAVLQSDLYTLSSSVTVPSSTWPSETVTCNVAHPASSTKVDKKIVPRDCGCKPCICTVPEVSSVFIFPPKPKDVLTITLTPKVTCVVVDISKDDPEVQFSWFVDDVEVHTAQTQPREEQFNSTFRSVSELPIMHQDWLNGKEFKCRVNSAAFPAPIEKTISKTKGRPKAPQVYTIPPPKEQMAKDKVSLTCMITDFFPEDITVEWQWNGQPAENYKNTQPIMDTDGSYFVYSKLNVQKSNWEAGNTFTCSVLHEGLHNHHTEKSLSHSPGK light: EIVLTQSPATLSLSPGERATLSCSASSSISSNYLHWYQQKPGQAPRFLIYRTSNLASGIPARFSGSGSGTDFTLTISSLEPEDFAVYYCQQASSIPRMFTFGQGTKLEIKRADAAPTVSIFPPSSEQLTSGGASVVCFLNNFYPKDINVKWKIDGSERQNGVLNSWTDQDSKDSTYSMSSTLTLTKDEYERHNSYTCEATHKTSTSPIVKSFNRNEC | 0.44 nM | 31600 MFI | 1.19 nM | 54700 MFI | 0.000205 nM | 1.86e-08 s⁻¹ | 91100 M⁻¹ s⁻¹ | ~0.05 nM | 0.05 OD450 | 0.05 OD450 | 0.05 OD450 | 0.05 OD450 | 0.05 OD450 | 0.05 OD450 | 0.08 OD450 | 0.1 OD450 | 0.13 OD450 | 0.39 OD450 | 1.56 OD450 | 2.51 OD450 | OD450 at 10 nM (Human CD19-his protein [5]): 2.55 OD450; OD450 at 100 nM (Human CD19-his protein [5]): 2.67 OD450
F3.121.4-L2H2 (antibody, mouse IgG1, kappa, V domains shown, humanized antibody of F3.121.4, VL2+VH2, murine IgG1 constant regions) VH: EVQLVQSGAEVKKPGASVKVSCKASGYTFTNYWMHWVRQAPGQGLEWMGEIDPSDNYANYNQEFQGRVTITVDKSASTAYMELSSLRSEDTAVYYCARHDGYFGALDYWGQGTTVTVSS VL: EIVLTQSPDFQSVTPKEKVTITCSASSSISSNYLHWYQQKPDQSPKLLIKRTSNLASGVPSRFSGSGSGTDFTLTINSLEAEDAATYYCQQASSIPRMFTFGQGTKLEIKR | 0.41 nM | 30100 MFI | 1.14 nM | 52200 MFI | 1.46 nM | 0.000195 s⁻¹ | 134000 M⁻¹ s⁻¹ | ~0.05 nM | 0.05 OD450 | 0.05 OD450 | 0.05 OD450 | 0.05 OD450 | 0.05 OD450 | 0.05 OD450 | 0.09 OD450 | 0.1 OD450 | 0.13 OD450 | 0.37 OD450 | 1.51 OD450 | 2.42 OD450 | OD450 at 10 nM (Human CD19-his protein [5]): 2.41 OD450; OD450 at 100 nM (Human CD19-his protein [5]): 2.55 OD450
F3.121.4-L2H1 (antibody, mouse IgG1, kappa, V domains shown, humanized antibody of F3.121.4, VL2+VH1, murine IgG1 constant regions) VH: EVQLVQSGAEVKKPGASVKVSCKASGYTFTNYWMHWVRQAPGQRLEWMGEIDPSDNYANYNQEFQGRVTITVDKSASTAYMELSSLRSEDTAVYYCARHDGYFGALDYWGQGTTVTVSS VL: EIVLTQSPDFQSVTPKEKVTITCSASSSISSNYLHWYQQKPDQSPKLLIKRTSNLASGVPSRFSGSGSGTDFTLTINSLEAEDAATYYCQQASSIPRMFTFGQGTKLEIKR | 0.38 nM | 29100 MFI | 1.08 nM | 53200 MFI | 1.43 nM | 0.000186 s⁻¹ | 130000 M⁻¹ s⁻¹ | ~0.05 nM | 0.05 OD450 | 0.05 OD450 | 0.05 OD450 | 0.05 OD450 | 0.05 OD450 | 0.05 OD450 | 0.09 OD450 | 0.1 OD450 | 0.13 OD450 | 0.38 OD450 | 1.52 OD450 | 2.42 OD450 | OD450 at 10 nM (Human CD19-his protein [5]): 2.45 OD450; OD450 at 100 nM (Human CD19-his protein [5]): 2.57 OD450
